Laboratory results reported in patent US20240209086A1 (PETMEDIX, published 2024).

T1: canine CD20 on cells (HEK293, MDCK II, CLBL-1 or native B cells) (canine, UniProt Q3C2E2 1-297)
T1 chain: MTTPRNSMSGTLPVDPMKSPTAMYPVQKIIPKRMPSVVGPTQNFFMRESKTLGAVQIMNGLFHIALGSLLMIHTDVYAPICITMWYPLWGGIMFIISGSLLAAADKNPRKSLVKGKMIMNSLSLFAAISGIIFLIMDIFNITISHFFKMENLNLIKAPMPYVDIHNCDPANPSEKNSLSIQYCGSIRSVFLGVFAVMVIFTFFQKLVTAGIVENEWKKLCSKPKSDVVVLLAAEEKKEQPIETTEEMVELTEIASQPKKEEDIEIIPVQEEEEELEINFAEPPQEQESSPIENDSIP


What was measured:
[1] = biological target: T1, canine CD20 on cells (HEK293, MDCK II, …); assay: cell-based or functional assay
[2] = biological target: T1, canine CD20 on cells (HEK293, MDCK II, …); assay: flow cytometry, canine CD20 HEK293 cells, FITC anti-canine IgG
Method: A CD20 binding screen was performed on candidate proteins produced from the canine CD20 immunisation as described in Examples 2 and 3. CHO cells supernatants containing candidate antibodies were diluted to 10 μg/ml in FACS buffer (PBS containing 3% FBS) and screened for their ability to bind canine CD20 expressed on cell surface. In brief, 1-2×10⁵ canine CD20-expressing HEK cells were incubated with candidate mAbs for one hour at 4° C., at a fixed concentration of 10 μg/ml followed by incubation with 5 μg/ml of FITC-conjugated anti-canine IgG secondary antibody (Bethyl Laboratories) for 1 hour at 4° C. Cells incubated with anti-canine IgG FITC secondary antibody and without primary anti-canine CD20 antibody, or with isotype control primary antibody, were used as negative controls. The data were acquired on either a Beckman Coulter CytoFLEX or a BD Accuri C6 Plus flow cytometer and analysed using FlowJo software.

[3] = biological target: T1, canine CD20 on cells (HEK293, MDCK II, …); assay: cell-based or functional assay
[4] = biological target: T1, canine CD20 on cells (HEK293, MDCK II, …); assay: cell-based or functional assay
[5] = biological target: T2, canine CD3εδ-Fc (heterodimer of canine CD3ε-hIgG4PE-knob and canine CD3δ-hIgG4PE-hole) (canine); assay: SPR Biacore 8K, single cycle, CD3εδ-Fc amine-coupled on CM5, antibody at 16.5, 33 and 66 nM
T2 construct: also called CD3εδ-Fc fusion protein; copies: 1 + 1
Method: Candidates CD3 bispecific antibodies were also screened for their ability to bind canine CD3εδ-Fc using surface plasmon resonance (SPR) using a Biacore 8K (Cytiva). Canine CD3εδ-Fc was covalently bound by amine coupling to the surface of a CM5 chip (Cytiva). CHO cell supernatant was diluted to 66, 33 and 16.5 nM in HBS-EP+ buffer and run on the chip single cycle kinetic protocol. Data was analysed using the dedicated software (Biacore Insight Evaluation Software).

T2 sequence (chain, as listed by the source mutant limits assumed): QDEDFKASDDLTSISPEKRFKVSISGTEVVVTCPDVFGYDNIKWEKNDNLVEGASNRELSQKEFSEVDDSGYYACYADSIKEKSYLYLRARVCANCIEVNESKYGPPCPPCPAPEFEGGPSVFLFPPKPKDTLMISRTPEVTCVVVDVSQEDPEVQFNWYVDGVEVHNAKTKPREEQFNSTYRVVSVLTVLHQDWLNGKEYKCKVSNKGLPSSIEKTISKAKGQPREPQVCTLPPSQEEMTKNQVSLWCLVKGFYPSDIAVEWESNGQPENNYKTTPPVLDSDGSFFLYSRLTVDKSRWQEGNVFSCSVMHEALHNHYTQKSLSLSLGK

binding result [5] | Binder | EC50 (nM), bispecific killing (FIG. 13E) [1] [nM] | also measured
– | PMX172VH/PMX263VH/PMX172VL (bispecific antibody, V domains shown) VH 1: EVQLVESGGDLVKPGGSLRLSCVASGFTFSSYHMSWVRQAPGKGLQWVAYSNSGGSRTSYADAVKGRFTISRDNAKNTLYLQMNSLRAEDTAVYYCASEGGGGRYGYKDYGMDYWGHGTSLFVSS VH 2: EVQLVESGGDLVKPGGSLRLSCVASGFTFSRYYMNWVRQAPGKGLQWVAYINSGGSSTSYADAVKGRFTISRDNAKNTLYLQMNSLRADDTAVYYCTSFDYWGQGTLVTVSS VL: SYVLTQLPSKNVTLKQPAHITCGGDNIGSKSVHWYQQKLGQAPVLIIYYDSSRPTGIPERFSGANSGNTATLTISGALAEDEADYYCQVWDSSAKAWVFGEGTQLTVL | 15.7 | –
– | PMX251 (monospecific anti-canine CD20, canine IgG-B, lambda C5) (antibody, V domains shown) VH: EVQLVESGGDLVKPGGSLRLSCVASGFTFSSYHMSWVRQAPGKGLQWVAYINSGGSSTSYADAVKGRFTISRDNAKNTLYLQMNSLRAEDTAVYYCASFDYWGQGTLVTVSS VL: SYVLTQLPSKNVTLKQPAHITCGGDNIGSKSVHWYQQKLGQAPVLIIYYDSSRPTGIPERFSGANSGNTATLTISGALAEDEADYYCQVWDSSANVFGGGTHLTVLG | – | binding result [2]: no binding (tested: 10 µg/ml)
– | PMX172VH/PMX239VH/PMX172VL (bispecific antibody, V domains shown) VH 1: EVQLVESGGDLVKPGGSLRLSCVASGFTFSSYHMSWVRQAPGKGLQWVAYSNSGGSRTSYADAVKGRFTISRDNAKNTLYLQMNSLRAEDTAVYYCASEGGGGRYGYKDYGMDYWGHGTSLFVSS VH 2: EVQLVESGGDLVKPGGSLRLSCVASGFTFSRYYMNWVRQAPGKGLQWVAFITSGGSSTSYGDAVKGRFTISRDNAKNTLYLQMNSLRAEDTAVYYCTSFDYWGQGTLVTVSS VL: SYVLTQLPSKNVTLKQPAHITCGGDNIGSKSVHWYQQKLGQAPVLIIYYDSSRPTGIPERFSGANSGNTATLTISGALAEDEADYYCQVWDSSAKAWVFGEGTQLTVL | 2.59 | –
– | PMX172VH/PMX264VH/PMX172VL (bispecific antibody, V domains shown) VH 1: EVQLVESGGDLVKPGGSLRLSCVASGFTFSSYHMSWVRQAPGKGLQWVAYSNSGGSRTSYADAVKGRFTISRDNAKNTLYLQMNSLRAEDTAVYYCASEGGGGRYGYKDYGMDYWGHGTSLFVSS VH 2: EVQLVESGGDLVKPGGSLRLSCVASGFTFSRYHMSWVRQAPGKGLQWVAFINTGRMSTNYADAVKGRFTISRDNAKNTLYLQMNSLRAEDTAVYYCTSLDYWGQGTLVTVSS VL: SYVLTQLPSKNVTLKQPAHITCGGDNIGSKSVHWYQQKLGQAPVLIIYYDSSRPTGIPERFSGANSGNTATLTISGALAEDEADYYCQVWDSSAKAWVFGEGTQLTVL | 2.88 | EC50 (nM), bispecific killing (FIG. 15) [3]: 0.361 nM; EC50 (nM), endogenous B cell depletion in PBMC (FIG. 16A) [4]: 0.828 nM
– | PMX172VH/PMX272VH/PMX172VL (bispecific antibody, V domains shown) VH 1: EVQLVESGGDLVKPGGSLRLSCVASGFTFSSYHMSWVRQAPGKGLQWVAYSNSGGSRTSYADAVKGRFTISRDNAKNTLYLQMNSLRAEDTAVYYCASEGGGGRYGYKDYGMDYWGHGTSLFVSS VH 2: EVQLVESGGDLVKPGGSLRLSCVASGFTFSRYYMNWVRQAPGKGLQWVAYIDSDGSSTSYADAVKGRFTISRDNAKNTLYLQMNSLRADDTAVYYCTSFDYWGQGTLVTVSS VL: SYVLTQLPSKNVTLKQPAHITCGGDNIGSKSVHWYQQKLGQAPVLIIYYDSSRPTGIPERFSGANSGNTATLTISGALAEDEADYYCQVWDSSAKAWVFGEGTQLTVL | 5.87 | –
– | PMX172VH/PMX273VH/PMX172VL (bispecific antibody, V domains shown) VH 1: EVQLVESGGDLVKPGGSLRLSCVASGFTFSSYHMSWVRQAPGKGLQWVAYSNSGGSRTSYADAVKGRFTISRDNAKNTLYLQMNSLRAEDTAVYYCASEGGGGRYGYKDYGMDYWGHGTSLFVSS VH 2: EMQLVESGGDLVKPGGSLRLSCVASGFTFSRYHMSWVRQAPGKGLQWVAYIDSDGSPTNYADAVKGRFTISRDNAKNTLYLQMNSLRAEDTAVYYCTTYDQWGQGTLVTVSS VL: SYVLTQLPSKNVTLKQPAHITCGGDNIGSKSVHWYQQKLGQAPVLIIYYDSSRPTGIPERFSGANSGNTATLTISGALAEDEADYYCQVWDSSAKAWVFGEGTQLTVL | 9.63 | –
binds | PMX159 in bispecific format (canine CD3 arm PMX159 x Rituximab arm, human IgG4PE knob-in-hole) (bispecific antibody) heavy 1: ELTLQESGPGLVKPSQTLSLTCVVSGGSVTRSYYWNWIRQRPGRGLEWMGYWTGSTIYNPTFQGRISITADTAKSQFSLQLRSMTTEDTAMYFCAREGGKSLGAFAYWGQGTLVTVSSASTKGPSVFPLAPCSRSTSESTAALGCLVKDYFPEPVTVSWNSGALTSGVHTFPAVLQSSGLYSLSSVVTVPSSSLGTKTYTCNVDHKPSNTKVDKRVESKYGPPCPPCPAPEFEGGPSVFLFPPKPKDTLMISRTPEVTCVVVDVSQEDPEVQFNWYVDGVEVHNAKTKPREEQFNSTYRVVSVLTVLHQDWLNGKEYKCKVSNKGLPSSIEKTISKAKGQPREPQVYTLPPSQCEMTKNQVSLSCAVKGFYPSDIAVEWESNGQPENNYKTTPPVLDSDGSFFLVSRLTVDKSRWQEGNVFSCSVMHEALHNRFTQKSLSLSLGK light 1: SYVLTQLPSKNVTLKQPAHITCGGDKIGSKNVHWYQQKLGQAPVMIIYYDSSRPTGIPERFSGANSGNTATLTISGALAEDEADYYCQVWDSSAKAAVFGGGTHLTVLRTVAAPSVFIFPPSDEQLKSGTASVVCLLNNFYPREAKVQWKVDNALQSGNSQESVTEQDSKDSTYSLSSTLTLSKADYEKHKVYACEVTHQGLSSPVTKSFNRGEC heavy 2: not shown light 2: QIVLSQSPAILSASPGEKVTMTCRASSSVSYIHWFQQKPGSSPKPWIYATSNLASGVPVRFSGSGSGTSYSLTISRVEAEDAATYYCQQWTSNPPTFGGGTKLEIKRTVAAPSVFIFPPSDEQLKSGTASVVCLLNNFYPREAKVQWKVDNALQSGNSQESVTEQDSKDSTYSLSSTLTLSKADYEKHKVYACEVTHQGLSSPVTKSFNRGEC | – | –
binds | PMX160 in bispecific format (canine CD3 arm PMX160 x Rituximab arm, human IgG4PE knob-in-hole) (bispecific antibody) heavy 1: EVQMVESGGDLVKPGGSLRFSCVASGFTFSSYHMSWVRQAPGKGLQWVAYINSGGSRTSYADAVKGRFTISRDNAKNTLYLQMNSLRAEDTAVYYCASGRSPPPLGSFDYGLDYWGHGTSLFVSSASTKGPSVFPLAPCSRSTSESTAALGCLVKDYFPEPVTVSWNSGALTSGVHTFPAVLQSSGLYSLSSVVTVPSSSLGTKTYTCNVDHKPSNTKVDKRVESKYGPPCPPCPAPEFEGGPSVFLFPPKPKDTLMISRTPEVTCVVVDVSQEDPEVQFNWYVDGVEVHNAKTKPREEQFNSTYRVVSVLTVLHQDWLNGKEYKCKVSNKGLPSSIEKTISKAKGQPREPQVYTLPPSQCEMTKNQVSLSCAVKGFYPSDIAVEWESNGQPENNYKTTPPVLDSDGSFFLVSRLTVDKSRWQEGNVFSCSVMHEALHNRFTQKSLSLSLGK light 1: SYVLTQLPSKNVTLKQPAHITCGGDNIGSKSVHWYQQKLGQAPVLIIYYDSSRPTGIPERFSGANSGNTATLTISGALAEDEADYYCQVWDSSAKAWVFGEGTQLTVLRTVAAPSVFIFPPSDEQLKSGTASVVCLLNNFYPREAKVQWKVDNALQSGNSQESVTEQDSKDSTYSLSSTLTLSKADYEKHKVYACEVTHQGLSSPVTKSFNRGEC heavy 2: not shown light 2: QIVLSQSPAILSASPGEKVTMTCRASSSVSYIHWFQQKPGSSPKPWIYATSNLASGVPVRFSGSGSGTSYSLTISRVEAEDAATYYCQQWTSNPPTFGGGTKLEIKRTVAAPSVFIFPPSDEQLKSGTASVVCLLNNFYPREAKVQWKVDNALQSGNSQESVTEQDSKDSTYSLSSTLTLSKADYEKHKVYACEVTHQGLSSPVTKSFNRGEC | – | –
binds | PMX162 in bispecific format (canine CD3 arm PMX162 x Rituximab arm, human IgG4PE knob-in-hole) (bispecific antibody) heavy 1: EMQLVESGGDLVKPGGSLRLSCVASGFTFSTYHMSWVRQAPGKGLQWVAYSNSGGTRTYYADAVKGRFTISRDNVKNTLYLQMNSLRAEDTAVYYCASEGSGGGRYGFKDYGMDYWGHGTSLFVSTASTKGPSVFPLAPCSRSTSESTAALGCLVKDYFPEPVTVSWNSGALTSGVHTFPAVLQSSGLYSLSSVVTVPSSSLGTKTYTCNVDHKPSNTKVDKRVESKYGPPCPPCPAPEFEGGPSVFLFPPKPKDTLMISRTPEVTCVVVDVSQEDPEVQFNWYVDGVEVHNAKTKPREEQFNSTYRVVSVLTVLHQDWLNGKEYKCKVSNKGLPSSIEKTISKAKGQPREPQVYTLPPSQCEMTKNQVSLSCAVKGFYPSDIAVEWESNGQPENNYKTTPPVLDSDGSFFLVSRLTVDKSRWQEGNVFSCSVMHEALHNRFTQKSLSLSLGK light 1: SYVLTQLPSKNVTLKQPAHITCGGDNIGSKSVHWYQQKLGQAPVLIIYYDSSRPTGIPERFSGANSGNTATLTISGALAEDEADYYCQVWDSSAKAWVFGEGTQLTVLRTVAAPSVFIFPPSDEQLKSGTASVVCLLNNFYPREAKVQWKVDNALQSGNSQESVTEQDSKDSTYSLSSTLTLSKADYEKHKVYACEVTHQGLSSPVTKSFNRGEC heavy 2: not shown light 2: QIVLSQSPAILSASPGEKVTMTCRASSSVSYIHWFQQKPGSSPKPWIYATSNLASGVPVRFSGSGSGTSYSLTISRVEAEDAATYYCQQWTSNPPTFGGGTKLEIKRTVAAPSVFIFPPSDEQLKSGTASVVCLLNNFYPREAKVQWKVDNALQSGNSQESVTEQDSKDSTYSLSSTLTLSKADYEKHKVYACEVTHQGLSSPVTKSFNRGEC | – | –
